Source: the DeepSol protein solubility set

experiment: soluble on expression in E. coli; label from the status in PepcDB or PDB records

Row | Sequence | soluble on expression in E. coli
1 | TLLPQVQEVAYNQMANAGYEGAVVAIKPSTGEILAMASTPSYDPSAIVNPDTAEQTWAALNADPGNPLLNHATQETLPPGSTFKVITTAAGLNAGYGPGSMLTGQDRITLPDGITTLENYAGQTCAGSQNVTLATAFQYSCNTAFVQMGIDVGKEKFDEAAHAFGVNDRYDLGVDMAPGTIGDVSDPSARGQSSIGQRDVAMSVLHNAVVAATVANGGKRMEPHLVNRIVGQDLKVIKETKPHQINEAVTPEVAATLTDLMRLSERHTAGYTGADIASKTGTAEHGEDSRNSNPHAWYIAFGPSANADVAVAVVVKNGGDAGQAATGGSVAAPIGRAVIAAAQAALAARG | not soluble
2 | MVSIKEHLEELLESFDYSGDVEERIRLLRAAIGRIGNMFYGTENEEIYADQVRRIKLRLRELRETYATSEDNWRELMDNLEELRDQIERLAIRGGIIEK | not soluble
3 | FLLEIGLEEMPAKYVTSSVLQLEKRVTDWLKDNQIEFKEIKTYSTPRRLTVLVEEMAEEQANRVEEAKGPAKKIALDDEGNWSKAALGFAKSQKVAPEDLTFREIKGVEYIYIKKEVIGEKTTALLPSLEKVVTSMTFPVSMHWGSNDLRYIRPIKWLIAMFGEEIIPFEITGVSTSNTSRGHRFLGKTATINQPSDYPHALLEQFVVVNASERKQAIVEQLRELETMENWQIREDDDLLEEVTNLVEYPTVLAGNFEKEYLELPEEVLITTMKEHQRYFPVFSQEGELLPHFVTVRNGNHENLDTVARGNEKVLRARLSDADFFYQEDLKITIDEAVAKLQNIVFHEKLGTLTEKMERVQKVALMLADYLNWQEEDKQDIIRLTNIYKFDLVTNIVGEFPELQGLMGEKYALLQGEKPAIATAIREHYLPSSAEGVLPQTDLGSLIAIADKLETLIGFFCVNIVPTGSADPFGLRRSAFGAMRIIQANGWDIPMLEVISRIVDMERAEGATELPSADVKKEVQTFLKNRLRVILQGHHIRHDIIDAVIGGDPNV | not soluble
4 | MPQYKGSREVISIHVGQAGVQIGNACWELFCLEHGIQPDGYHVEDDTYDEETETINTFFAETAGGKHVPRCLFVDLEPTVVDEVRTGTYRSLFHPEQLLSGKEDAANCYARGRYTIGREMIDVVMDRVKRLAENCNGLQGFVIFHSFGGGTGSGFLSLLMERLSTEYGKKPKLEFAIYPAPQVSTSMVEPYNSILMTHTTLEHSDCTFMVDNEAIYDICRRNLDLARPTYTNLNRLVAQIISSITASLRFEGALNVDLTEFQTNLVPYPRIHFPLVTYAPLVSAERASHEQNTVSDMTHACFEPGYQMVKCDPRRGKYMAVCLLYRGDVVPKDINSAIAAVKTKRTVQFVEWCPTGFKVGINYQPPTVVPGGDLGKQTRSVCMISNTTAIAEAWARLDHKFDLMYAKRAFVHWYVGEGMEEGEFSEAREDMAALEKDYEEIGEDELPDDIDDQSYRGRSSGSRY | not soluble
5 | MTPEAAYQNLLEFQRETAYLASLGALAAWDQRTMIPKKGHEHRARQMAALARLLHQRMTDPRIGEWLEKVEGSPLVQDPLSDAAVNVREWRQAYERARAIPERLAVELAQAESEAESFWEEARPRDDWRGFLPYLKRVYALTKEKAEVLFALPPAPGDPPYGELYDALLDGYEPGMRARELLPLFAELKEGLKGLLDRILGSGKRPDTSILHRPYPVEAQRRFALELLSACGYDLEAGRLDPTAHPFEIAIGPGDVRITTRYYEDFFNAGIFGTLHEMGHALYEQGLPKEHWGTPRGDAVSLGVHESQSRTWENLVGRSLGFWERFFPRAREVFASLGDVSLEDFHFAVNAVEPSLIRVEADEVTYNLHILVRLELELALFRGELSPEDLPEAWAEKYRDHLGVAPKDYKDGVMQDVHWAGGLFGYFPTYTLGNLYAAQFFQKAEAELGPLEPRFARGEFQPFLDWTRARIHAEGSRFRPRVLVERVTGEAPSARPFLAYLEKKYAALYG | soluble
6 | MSELRVISLDEVSKHNWEDADQSCWIVISGKVYDVTKFLNEHPGGEEVITQLAGKDATVGFLDVGHSKDAIEMANEYLIGQLPESDVPKVETAAAKPSKNEKSSSLLNDFTEIMTSPTWTNFLIPTTMGLVIYAVYKCMFN | not soluble
7 | QMFWPLQPVQLSLANVFLALANYLDAKAKLFHPVTNLAPQPMRIEAARLNAATVTALNACKATLLTRSKRGHVDGPSDRFLNIYFIAQDIHERVSSSHYRYQDLATEFERSDVLFRFKYLLETQAQACRDIAQAIQLGNEYTHTDESILALAELQNSLAYLEEQQQGHWKRLLMQLTYLFNNLATVEKQLNNINNPDAERLEEDTLADTNPHTLKAMWQRISANLHKDSMLFRH | not soluble
